Measurements taken from the supplement of paper PMC6757056.
± gives the standard deviation of the averaged measurements.

B1: library; a variant is named by its letters at N, in order (parent)
chain: GCUGUCACCGGUGUAUUACCCUAGUGGUCGACCGGUCUGAUGAGUCUNNNNNNAGACGAAACAGC

How the values were obtained:
[1] = variants of: B1; assay: FACS-Seq fitted mean relative fluorescence mCherry/BFP without ligand (log10 relative fluorescence); ligand: hypoxanthine (xanthine aptamer); higher = higher reporter protein expression; details: HEK293T, ligand present: no
Procedure, shortened: (§1)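 Reporter cells were enriched HEK293T libraries transduced by lentivirus with mCherry behind the ribozyme switch and with an EF1α-BFP marker. Following 48 h with or without ligand, they were sorted into 6 mCherry/BFP bins, and bin genomic DNA was PCR-amplified, barcoded and MiSeq-sequenced. Fluorescence was computed as the fitted normal mean of the bin counts. The fit used log10(mCherry/BFP), with scaling to five spiked-in control ribozymes.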

[2] = variants of: B1; assay: normalized RNA/DNA level with ligand (relative to sTRSVctl = 100) (log10 (% of sTRSVctl)); ligand: hypoxanthine (xanthine aptamer); higher = less ribozyme self-cleavage, higher mRNA level; details: ligand concentration (+) RNA-Seq: 5 mM, HEK293T, reporter: mCherry (pCS4076), ligand present: yes
Procedure, shortened: (§2)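 Only sequences with at least 100 DNA reads were analyzed, from HEK293T cells transfected with 4 µg per 6-well well of ribozyme switch library plasmids 72 h before RNA extraction with EDTA. Any ligand was added 1 h before transfection. RNA level was defined as RNA over DNA reads, normalized to a spiked-in non-cleaving sequence or to the top sequences, then scaled and log-transformed. The top set was 25 sequences, and the scaling was ×100 followed by log10.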

[3] = variants of: B1; assay: normalized RNA/DNA level without ligand (relative to sTRSVctl = 100) (log10 (% of sTRSVctl)); ligand: hypoxanthine (xanthine aptamer); higher = less ribozyme self-cleavage, higher mRNA level; details: HEK293T, reporter: mCherry (pCS4076), ligand present: no
Procedure, shortened: as §2

[4] = variants of: B1; assay: FACS-Seq fitted mean relative fluorescence mCherry/BFP with ligand (log10 relative fluorescence); ligand: hypoxanthine (xanthine aptamer); ligand concentration (+) FACS-Seq: 5 mM; higher = higher reporter protein expression; details: HEK293T, ligand present: yes
Procedure, shortened: as §1

| Variant | FACS-Seq fitted mean (log10) [1] | normalized RNA/DNA level with ligand (log10) [2] | normalized RNA/DNA level without ligand (log10) [3] | FACS-Seq fitted mean (log10) [4] |
| --- | --- | --- | --- | --- |
| GCGUAC | -0.0412 ± 0.02 | 1.82 ± 0.069 | 1.33 ± 0.025 | 0.4627 ± 0.0021 |
| GCGUAU | 0.549 ± 0.031 | 1.83 ± 0.037 | 1.49 ± 0.046 | 0.824 ± 0.043 |
| UCCGUU | -0.463 ± 0.04 | 1.946 ± 0.016 | 1.925 ± 0.019 | -0.148 ± 0.1 |
| UCCGUG | 0.223 ± 0.023 | 1.91 ± 0.071 | 1.47 ± 0.072 | 0.508 ± 0.065 |
| ACGGGA | 0.166 ± 0.0066 | 1.84 ± 0.024 | 1.371 ± 0.0073 | 0.623 ± 0.022 |
| ACGGGC | 0.13 ± 0.011 | 1.94 ± 0.035 | 1.79 ± 0.035 | 0.4948 ± 0.0031 |
| ACGGGU | 0.0468 ± 0.038 | 1.79 ± 0.025 | 1.33 ± 0.07 | 0.569 ± 0.011 |
| ACGGGG | -0.145 ± 0.048 | 1.81 ± 0.035 | 1.33 ± 0.058 | 0.5396 ± 0.0011 |
| GCGAAG | -0.383 ± 0.014 | 1.46 ± 0.12 | 0.925 ± 0.14 | 0.417 ± 0.06 |
| GCGAAA | 0.172 ± 0.045 | 1.878 ± 0.0072 | 1.49 ± 0.019 | 0.404 ± 0.021 |
| GCGAAU | -0.142 ± 0.009 | 1.833 ± 0.015 | 1.417 ± 0.013 | 0.291 ± 0.022 |
| GCGAAC | 0.0198 ± 0.0047 | 1.711 ± 0.0065 | 1.13 ± 0.044 | 0.61 ± 0.033 |
| GCGACA | 0.145 ± 0.041 | 1.888 ± 0.012 | 1.57 ± 0.04 | 0.28 ± 0.021 |
| GCGACC | 0.07588 ± 0.00049 | 1.88 ± 0.025 | 1.52 ± 0.038 | 0.5 ± 0.093 |
| GCGACG | 0.442 ± 0.017 | 1.81 ± 0.021 | 1.3 ± 0.099 | 0.666 ± 0.035 |
| UCGGAG | -0.494 ± 0.057 | 1.8831 ± 0.00053 | 1.41 ± 0.064 | -0.522 ± 0.082 |
| CCGAGG | 0.00201 ± 0.0053 | 1.839 ± 0.0063 | 1.37 ± 0.038 | 0.423 ± 0.024 |
| CCGAGA | 0.353 ± 0.076 | 1.87 ± 0.042 | 1.51 ± 0.046 | 0.648 ± 0.061 |
| GCGCCC | 0.221 ± 0.029 | 1.95 ± 0.071 | 1.742 ± 0.0061 | 0.44444 ± 0.00011 |
| CCGAAA | 0.595 ± 0.015 | 1.91 ± 0.049 | 1.7 ± 0.04 | 0.689 ± 0.05 |
| CCGAAG | -0.0351 ± 0.034 | 1.719 ± 0.0075 | 1.2 ± 0.14 | 0.496 ± 0.027 |
| GCCUUA | -0.138 ± 0.047 | 1.97 ± 0.0091 | 1.92 ± 0.026 | -0.197 ± 0.092 |
| GCCUUC | -0.325 ± 0.056 | 1.968 ± 0.0039 | 1.88 ± 0.058 | 0.101 ± 0.059 |
| GCCUUG | 0.213 ± 0.0088 | 1.93 ± 0.05 | 1.46 ± 0.016 | 0.64 ± 0.021 |

| Variant | FACS-Seq fitted mean (log10) [1] | normalized RNA/DNA level with ligand (log10) [2] | normalized RNA/DNA level without ligand (log10) [3] | FACS-Seq fitted mean (log10) [4] |
| --- | --- | --- | --- | --- |
| ACGCUG | 0.109 ± 0.026 | 1.91 ± 0.052 | 1.45 ± 0.031 | 0.566 ± 0.016 |
| UCGGGA | 0.091 ± 0.059 | 1.82 ± 0.078 | 1.23 ± 0.021 | 0.767 ± 0.094 |
| ACGCGC | 0.307 ± 0.06 | 1.88 ± 0.052 | 1.54 ± 0.019 | 0.7 ± 0.02 |
| ACGCGG | -0.216 ± 0.014 | 1.6394 ± 0.00079 | 1.22 ± 0.012 | 0.465 ± 0.047 |
| GCGCGG | -0.388 ± 0.022 | 1.81 ± 0.072 | 1.3 ± 0.021 | 0.464 ± 0.018 |
| CCCGCA | -0.714 ± 0.04 | 1.94 ± 0.028 | 1.91 ± 0.022 | -0.0625 ± 0.038 |
| ACCUAG | -0.692 ± 0.013 | 1.86 ± 0.03 | 1.58 ± 0.016 | -0.308 ± 0.028 |
| ACCUAC | 0.113 ± 0.032 | 1.92 ± 0.035 | 1.85 ± 0.05 | 0.264 ± 0.013 |
| UCGCAA | 0.477 ± 0.093 | 1.9 ± 0.032 | 1.6 ± 0.06 | 0.599 ± 0.058 |
| UCGCAG | 0.221 ± 0.04 | 1.918 ± 0.015 | 1.65 ± 0.078 | 0.46 ± 0.083 |
| UCCUGC | 0.86 ± 0.054 | 2.01 ± 0.056 | 1.919 ± 0.018 | 0.812 ± 0.091 |
| UCCUGG | 0.439 ± 0.047 | 1.94 ± 0.025 | 1.77 ± 0.073 | 0.518 ± 0.021 |
| CCGCUA | 0.42 ± 0.077 | 2.03 ± 0.053 | 1.827 ± 0.01 | 0.474 ± 0.034 |
| ACCGGG | 0.153 ± 0.0079 | 1.944 ± 0.015 | 1.89 ± 0.038 | 0.548 ± 0.0066 |
| ACGACA | 0.53 ± 0.013 | 1.912 ± 0.013 | 1.638 ± 0.016 | 0.613 ± 0.031 |
| ACGACG | 0.162 ± 0.0022 | 1.82 ± 0.045 | 1.26 ± 0.019 | 0.706 ± 0.059 |
| ACGACU | 0.28 ± 0.024 | 1.84 ± 0.039 | 1.59 ± 0.0056 | 0.447 ± 0.037 |
| ACCUGG | 0.3055 ± 0.0017 | 1.914 ± 0.011 | 1.55 ± 0.021 | 0.817 ± 0.071 |
| ACCUGA | 0.156 ± 0.046 | 1.96 ± 0.021 | 1.79 ± 0.049 | 0.323 ± 0.057 |
| CCGAUU | 0.52 ± 0.04 | 1.963 ± 0.019 | 1.78 ± 0.027 | 0.524 ± 0.036 |
| ACGAGG | -0.105 ± 0.022 | 1.412 ± 0.013 | 1.04 ± 0.14 | 0.777 ± 0.034 |
| ACGAGA | -0.0663 ± 0.023 | 1.67 ± 0.045 | 1.14 ± 0.019 | 0.488 ± 0.018 |
| ACGAGU | 0.0593 ± 0.021 | 1.76 ± 0.022 | 1.11 ± 0.047 | 0.609 ± 0.0067 |
| ACGAGC | 0.0832 ± 0.041 | 1.84 ± 0.049 | 1.27 ± 0.045 | 0.585 ± 0.029 |

| Variant | FACS-Seq fitted mean (log10) [1] | normalized RNA/DNA level with ligand (log10) [2] | normalized RNA/DNA level without ligand (log10) [3] | FACS-Seq fitted mean (log10) [4] |
| --- | --- | --- | --- | --- |
| UCCGAG | 0.3183 ± 0.002 | 1.82 ± 0.054 | 1.38 ± 0.049 | 0.517 ± 0.0072 |
| UCCUAC | 0.76 ± 0.022 | 2.01 ± 0.096 | 1.88 ± 0.076 | 0.751 ± 0.058 |
| GCGGAA | 0.328 ± 0.11 | 1.88 ± 0.033 | 1.53 ± 0.069 | 0.67 ± 0.06 |
| GCGGAC | 0.00746 ± 0.015 | 1.75 ± 0.046 | 1.31 ± 0.032 | 0.546 ± 0.037 |
| GCGGAG | -0.112 ± 0.056 | 1.66 ± 0.054 | 1.24 ± 0.052 | 0.449 ± 0.1 |
| GCGGAU | 0.308 ± 0.01 | 1.863 ± 0.0028 | 1.48 ± 0.039 | 0.547 ± 0.08 |
| CCGGAA | 0.279 ± 0.013 | 1.91 ± 0.027 | 1.71 ± 0.044 | 0.1512 ± 0.00072 |
| CCGGAC | 0.196 ± 0.035 | 2 ± 0.05 | 1.79 ± 0.077 | 0.439 ± 0.041 |
| CCGGAG | 0.0637 ± 0.015 | 1.86 ± 0.11 | 1.36 ± 0.11 | 0.573 ± 0.039 |
| GCCGGU | 0.478 ± 0.08 | 1.957 ± 0.01 | 1.982 ± 0.01 | 0.744 ± 0.043 |
| GCCUGA | 0.389 ± 0.04 | 1.99 ± 0.022 | 1.81 ± 0.038 | 0.6019 ± 0.0038 |
| ACCCGG | 0.195 ± 0.055 | 1.89 ± 0.034 | 1.48 ± 0.019 | 0.714 ± 0.058 |
| GCCGAU | 0.193 ± 0.041 | 1.96 ± 0.027 | 1.76 ± 0.045 | -0.0573 ± 0.24 |
| GCCGAG | 0.182 ± 0.0042 | 1.856 ± 0.013 | 1.39 ± 0.019 | 0.5906 ± 0.0027 |
| GCCGAA | 0.359 ± 0.087 | 1.96 ± 0.071 | 1.756 ± 0.0038 | 0.445 ± 0.055 |
| UCCCCA | 0.858 ± 0.055 | 1.94 ± 0.08 | 1.82 ± 0.036 | 0.843 ± 0.088 |
| ACCGCC | 0.708 ± 0.051 | 1.938 ± 0.0023 | 1.879 ± 0.0089 | 0.737 ± 0.025 |
| ACCGCG | 0.331 ± 0.028 | 1.826 ± 0.015 | 1.5 ± 0.097 | 0.608 ± 0.026 |
| UCGAUC | 0.537 ± 0.11 | 1.98 ± 0.033 | 1.96 ± 0.031 | 0.59 ± 0.045 |
| GCGGCG | -0.49 ± 0.037 | 1.93 ± 0.045 | 1.514 ± 0.012 | -0.0806 ± 0.025 |
| GCGAUG | 0.314 ± 0.033 | 1.77 ± 0.028 | 1.24 ± 0.092 | 0.754 ± 0.064 |
| GCGAUU | -0.0877 ± 0.0032 | 1.88 ± 0.06 | 1.65 ± 0.026 | 0.166 ± 0.016 |
| GCGAUC | 0.2339 ± 0.00091 | 1.87 ± 0.041 | 1.46 ± 0.038 | 0.601 ± 0.025 |
| UCGGCG | 0.493 ± 0.023 | 1.982 ± 0.0021 | 1.8 ± 0.03 | 0.666 ± 0.025 |
